The supplement of paper PMC10567573
± gives the standard deviation.

Test: protein stability index of a GFP-peptide fusion (GPS, HEK-293T) (PSI 1-6); higher = more stable
Details: c terminus: a fixed tail appended
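Note: 24-mer peptide tiles fused after GFP, lentivirally expressed, FACS-sorted into six equal bins by GFP/DsRed ratio, decoded by Illumina sequencing, PSI is the read-weighted mean bin number.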

## KKVLKKMLKFLAKGEVPKGSCEDE [ATE1]
treatment: DMSO
  protein stability index: 2.11 ± 0.25
treatment: MLN4924 1 uM, 8 h
  protein stability index: 2.25 ± 0.47

## PTVKDLIGGFTALHYAAMHGRARI [ASB7]
treatment: DMSO
  protein stability index: 2.56 ± 0.47
treatment: MLN4924 1 uM, 8 h
  protein stability index: 2.4 ± 0.43

## APHQQPPAPPSDALLDLHFPSDHL [TFE3]
treatment: DMSO
  protein stability index: 4.65 ± 0.087
treatment: MLN4924 1 uM, 8 h
  protein stability index: 4.77 ± 0.057

## NQKLFDLRGKFKRPPLRRVRMSAD [TNNI2]
treatment: DMSO
  protein stability index: 3.17 ± 0.21
treatment: MLN4924 1 uM, 8 h
  protein stability index: 3.51 ± 0.26

## RGVDVSLQGKDAWLPLHYAAWQGH [RIPK4]
treatment: DMSO
  protein stability index: 2.58 ± 0.42
treatment: MLN4924 1 uM, 8 h
  protein stability index: 2.45 ± 0.29

## SSKSDADSGFLGLRPTSVDPALRR [NOP53]
treatment: DMSO
  protein stability index: 4.51 ± 0.2
treatment: MLN4924 1 uM, 8 h
  protein stability index: 4.51 ± 0.22

## LEGVVSQIDAVGSKLKMLERKGWL [PKD2L1]
treatment: DMSO
  protein stability index: 2.63 ± 0.37
treatment: MLN4924 1 uM, 8 h
  protein stability index: 2.77 ± 0.24

## LWILHLLLECYIQYHHSKIRNRGY [TMEM192]
treatment: DMSO
  protein stability index: 2.61 ± 0.51
treatment: MLN4924 1 uM, 8 h
  protein stability index: 2.49 ± 0.32

## RLFLDGEEEKEWAFEESKIDEHHF [AASDHPPT]
treatment: DMSO
  protein stability index: 4.37 ± 0.26
treatment: MLN4924 1 uM, 8 h
  protein stability index: 4.42 ± 0.21

## EMRQALQALLKENRLLQEENRTLQ [CBY2]
treatment: DMSO
  protein stability index: 2.53 ± 0.45
treatment: MLN4924 1 uM, 8 h
  protein stability index: 2.65 ± 0.41

## AALCLEVTLKTAVDGPDLEMLTGQ [FKBP8]
treatment: DMSO
  protein stability index: 2.47 ± 0.38
treatment: MLN4924 1 uM, 8 h
  protein stability index: 2.49 ± 0.091

## GAMLGQTTSEEAVGGATPDQTTSE [HDAC6]
treatment: DMSO
  protein stability index: 4.91 ± 0.58
treatment: MLN4924 1 uM, 8 h
  protein stability index: 5.59 ± 0.073

## DVGCISVTVPSMLSRLLSRKRAVP [OR3A1]
treatment: DMSO
  protein stability index: 2.71 ± 0.26
treatment: MLN4924 1 uM, 8 h
  protein stability index: 2.85 ± 0.19

## QFAISRELIRNIYNSFHKLRDRAE [SNX8]
treatment: DMSO
  protein stability index: 2.19 ± 0.13
treatment: MLN4924 1 uM, 8 h
  protein stability index: 2.23 ± 0.21

## IQAINGESTELMTHLEAQNRIKGC [PDLIM4]
treatment: DMSO
  protein stability index: 4.1 ± 0.19
treatment: MLN4924 1 uM, 8 h
  protein stability index: 4.15 ± 0.14

## FDPLPPSDTIYSYVRPERLSPISH [TCF25]
treatment: DMSO
  protein stability index: 3.07 ± 0.17
treatment: MLN4924 1 uM, 8 h
  protein stability index: 3.14 ± 0.42

## LRSQLQTLKQQHQQAVEQIAKAEE [CCDC89]
treatment: DMSO
  protein stability index: 4.66 ± 0.15
treatment: MLN4924 1 uM, 8 h
  protein stability index: 4.76 ± 0.11

## HPAATALHAELCQAGSSQGLSLCQ [LPCAT4]
treatment: DMSO
  protein stability index: 4.22 ± 0.29
treatment: MLN4924 1 uM, 8 h
  protein stability index: 4.13 ± 0.16

## PPRRGVSGDRDENSFSLNSSISSS [MAP2]
treatment: DMSO
  protein stability index: 4.84 ± 0.14
treatment: MLN4924 1 uM, 8 h
  protein stability index: 4.74 ± 0.24

## YEFHLEFLDLVKPEPVYKLTQRQV [HACD3]
treatment: DMSO
  protein stability index: 2.54 ± 0.63
treatment: MLN4924 1 uM, 8 h
  protein stability index: 2.12 ± 0.076

## SLASASPPLSGRSTPKLTSRSAAQ [PPFIA4]
treatment: DMSO
  protein stability index: 4.5 ± 0.31
treatment: MLN4924 1 uM, 8 h
  protein stability index: 4.6 ± 0.14

## NTLVCNGLQNCVYPWDENHCKEKR [NETO1]
treatment: DMSO
  protein stability index: 4.21 ± 0.25
treatment: MLN4924 1 uM, 8 h
  protein stability index: 4.26 ± 0.3

## AHLAAEVEGKCLQSGFEMLKDVKS [TRIM39]
treatment: DMSO
  protein stability index: 4.17 ± 0.22
treatment: MLN4924 1 uM, 8 h
  protein stability index: 4.62 ± 0.28

## TAHADEFDCPSELQHTQELFPQWH [STEAP1]
treatment: DMSO
  protein stability index: 3.79 ± 0.15
treatment: MLN4924 1 uM, 8 h
  protein stability index: 3.84 ± 0.07

## LQQERQRLGQRQPPPSEPTQGPEI [DNAJC4]
treatment: DMSO
  protein stability index: 5.52 ± 0.16
treatment: MLN4924 1 uM, 8 h
  protein stability index: 5.16 ± 0.081

## CKVDCEANLTPNVGGYFVDKFVAT [P3H4]
treatment: DMSO
  protein stability index: 2.84 ± 0.23
treatment: MLN4924 1 uM, 8 h
  protein stability index: 2.55 ± 0.29

## KEKTAKHFFALKVMSIPDVIRLKQ [PRKX]
treatment: DMSO
  protein stability index: 2.44 ± 0.23
treatment: MLN4924 1 uM, 8 h
  protein stability index: 2.22 ± 0.2

## LAMLNAVTEDLRLKDWEHSIALRN [SCARA5]
treatment: DMSO
  protein stability index: 2.86 ± 0.17
treatment: MLN4924 1 uM, 8 h
  protein stability index: 2.93 ± 0.16

## REWRCCPGHSGVSCEEVAASSASL [EMID1]
treatment: DMSO
  protein stability index: 3.74 ± 0.089
treatment: MLN4924 1 uM, 8 h
  protein stability index: 3.55 ± 0.31

## NALTLTFQRAMHDYNQAEMKQRDN [STX11]
treatment: DMSO
  protein stability index: 3.54 ± 0.15
treatment: MLN4924 1 uM, 8 h
  protein stability index: 3.68 ± 0.12

## RAVLGGLSQTDPRAGGGGGGDYGL [PPTC7]
treatment: DMSO
  protein stability index: 4.01 ± 0.84
treatment: MLN4924 1 uM, 8 h
  protein stability index: 3.85 ± 1.5

## QNPGKFDELDMSPGDPKWLDVIER [TBC1D10A]
treatment: DMSO
  protein stability index: 4.27 ± 0.081
treatment: MLN4924 1 uM, 8 h
  protein stability index: 4.49 ± 0.28

## DYRMELAQAGTPAPTKPHDYRQEQ [SPAG8]
treatment: DMSO
  protein stability index: 5.11 ± 0.088
treatment: MLN4924 1 uM, 8 h
  protein stability index: 5.16 ± 0.14

## STCFTELQRDFLKQRPTKLKSLIR [OAS1]
treatment: DMSO
  protein stability index: 2.6 ± 0.17
treatment: MLN4924 1 uM, 8 h
  protein stability index: 2.66 ± 0.14

## YERPNVETIKCVVVGDNAVGKTRL [RHOBTB1]
treatment: DMSO
  protein stability index: 3.71 ± 0.23
treatment: MLN4924 1 uM, 8 h
  protein stability index: 3.86 ± 0.21

## MVKIFRLLPTKSLVALKCTCCYFK [FBXO34]
treatment: DMSO
  protein stability index: 3.18 ± 0.48
treatment: MLN4924 1 uM, 8 h
  protein stability index: 2.71 ± 0.69

## GTLSMGVPQIFKYGETCFPKGRFE [ZNF24]
treatment: DMSO
  protein stability index: 2.83 ± 0.11
treatment: MLN4924 1 uM, 8 h
  protein stability index: 2.56 ± 0.27

## RESRILFSTWNLDHIIEKKRTIIP [DFFB]
treatment: DMSO
  protein stability index: 2.35 ± 0.22
treatment: MLN4924 1 uM, 8 h
  protein stability index: 2.52 ± 0.22

## EWLLDAPELPEGHLEDWLEKRAKR [ZMAT5]
treatment: DMSO
  protein stability index: 4.95 ± 0.52
treatment: MLN4924 1 uM, 8 h
  protein stability index: 4.79 ± 0.15

## LEEGENPVPAFQSDGTDEPESKEP [SMG5]
treatment: DMSO
  protein stability index: 5.65 ± 0.24
treatment: MLN4924 1 uM, 8 h
  protein stability index: 5.65 ± 0.2

## RELNDRLAVYIDKVRSLETENSAL [LMNB1]
treatment: DMSO
  protein stability index: 3.33 ± 0.24
treatment: MLN4924 1 uM, 8 h
  protein stability index: 3.04 ± 0.34

## DMWSIGVITYILLSGASPFLGETK [DAPK3]
treatment: DMSO
  protein stability index: 3.15 ± 0.3
treatment: MLN4924 1 uM, 8 h
  protein stability index: 2.97 ± 0.36

## EALVNRLWKRMDKLEAEKRILQEK [CCDC6]
treatment: DMSO
  protein stability index: 2.93 ± 0.08
treatment: MLN4924 1 uM, 8 h
  protein stability index: 3.6 ± 0.24

## TSEGTTLSGVDLELVGSGYRMSLV [FCHO1]
treatment: DMSO
  protein stability index: 2.14 ± 0.48
treatment: MLN4924 1 uM, 8 h
  protein stability index: 2.29 ± 0.29

## LYILGNFMQLKCFSSQKLKCLSMF [PNLIPRP1]
treatment: DMSO
  protein stability index: 3.67 ± 0.66
treatment: MLN4924 1 uM, 8 h
  protein stability index: 3.46 ± 0.73
